The values below come from patent US20110287979A1 (ONCOMED PHARMACEUTICALS, published 2011).

The target in this experiment is T1, hJag1-rFc (human; rabbit, UniProt P78504 34-1067; P01870 96-323, limits assumed).
T1 construct: also called hJag-rFc; control antigen
Nature of the experiment: FACS of transfected HEK-293 cells incubated with hJag-rFc and PE-labeled anti-rabbit Fc antibody. The method, then:
The effect of carrier plasmid on the transfection and display of an Ab-encoding plasmid was tested. The single chain anti-DLL4 antibody (sc21M18) described above was transfected with varying ratios of carrier plasmid. In this study, the carrier plasmid encoded an irrelevant […] antibody (sc18R5). The cells were also transfected with the Membrane-MAb(hIgG2)-GFP construct. The concentration of Ab library plasmid in the cells could be inferred from the level of surface expression of the anti-DLL4 antibody molecule. Approximately 5×10⁶ HEK-293 cells were transfected with plasmid DNA and harvested after 48 hours. The plasmid DNA was a mixture of sc21M18 and sc18R5, wherein the ratio of sc21M18 to sc18R5 varied from 1 to 10,000-fold excess of sc18R5 (1, 10, 100, 1000 or 10,000-fold excess). For detection of a functional anti-DLL4 antibody molecule on the cell surface, transfected cells were incubated with an hDLL4-rFc fusion protein. Bound hDLL4-rFc was detected with a PE-labeled anti-rabbit Fc antibody. The percentage of cells which expressed anti-DLL4 antibody was determined by FACS analysis. Cells were also incubated with a control antigen (hJag-rFc, -▪-) or only the PE-labeled anti-rabbit Fc antibody (-▴-).

T1 sequence (P78504 other isoform, or with tags, fused parts or gaps limits assumed): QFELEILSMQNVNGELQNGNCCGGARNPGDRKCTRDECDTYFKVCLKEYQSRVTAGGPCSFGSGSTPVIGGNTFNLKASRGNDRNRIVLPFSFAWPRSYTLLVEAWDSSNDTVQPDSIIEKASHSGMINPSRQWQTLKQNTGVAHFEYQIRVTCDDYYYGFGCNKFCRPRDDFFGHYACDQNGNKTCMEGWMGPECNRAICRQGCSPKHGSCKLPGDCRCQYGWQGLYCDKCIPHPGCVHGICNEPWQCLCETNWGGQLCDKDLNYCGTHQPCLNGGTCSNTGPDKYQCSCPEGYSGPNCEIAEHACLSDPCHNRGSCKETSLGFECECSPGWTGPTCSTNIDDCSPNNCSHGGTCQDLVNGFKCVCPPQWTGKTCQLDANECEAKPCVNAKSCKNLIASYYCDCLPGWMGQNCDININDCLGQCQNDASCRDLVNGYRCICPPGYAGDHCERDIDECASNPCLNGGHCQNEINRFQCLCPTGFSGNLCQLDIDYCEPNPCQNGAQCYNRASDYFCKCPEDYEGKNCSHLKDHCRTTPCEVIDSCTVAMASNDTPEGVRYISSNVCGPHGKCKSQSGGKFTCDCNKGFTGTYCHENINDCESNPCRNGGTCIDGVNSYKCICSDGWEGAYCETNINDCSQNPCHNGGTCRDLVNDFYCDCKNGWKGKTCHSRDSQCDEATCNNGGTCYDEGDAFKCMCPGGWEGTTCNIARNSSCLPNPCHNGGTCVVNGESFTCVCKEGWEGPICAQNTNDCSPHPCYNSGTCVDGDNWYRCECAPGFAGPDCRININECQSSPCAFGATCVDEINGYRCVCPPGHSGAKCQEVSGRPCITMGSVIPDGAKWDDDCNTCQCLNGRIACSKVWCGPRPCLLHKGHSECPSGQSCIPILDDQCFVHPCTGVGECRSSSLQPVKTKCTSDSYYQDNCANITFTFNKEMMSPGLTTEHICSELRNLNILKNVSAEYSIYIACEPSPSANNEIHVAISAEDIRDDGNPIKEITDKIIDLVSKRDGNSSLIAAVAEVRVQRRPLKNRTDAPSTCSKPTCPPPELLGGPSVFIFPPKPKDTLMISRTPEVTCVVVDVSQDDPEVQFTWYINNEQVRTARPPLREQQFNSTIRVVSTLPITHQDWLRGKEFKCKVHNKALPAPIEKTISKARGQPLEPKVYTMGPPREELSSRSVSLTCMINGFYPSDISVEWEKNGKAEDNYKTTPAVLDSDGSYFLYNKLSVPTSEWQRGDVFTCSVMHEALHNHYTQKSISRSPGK

B1: heterodimeric antibody molecule: single chain anti-DLL4 antibody sc21M18 associated with the Membrane-MAb(hIgG2)-GFP protein on the surface of HEK-293 cells (antibody)
chain 1: DIVMTQSPDSLAVSLGERATISCRASESVDNYGISFMKWFQQKPGQPPKLLIYAASNQGSGVPDRFSGSGSGTDFTLTISSLQAEDVAVYYCQQSKEVPWTFGGGTKVEIKRTVAAPSVFIFPPSDEQLKSGTASVVCLLNNFYPREAKVQWKVDNALQSGNSQESVTEQDSKDSTYSLSSTLTLSKADYEKHKVYACEVTHQGLSSPVTKSFNRGECGGGGGSGGGGSGGGGSGGGGSGGGGSGGGGSQVQLVQSGAEVKKPGASVKISCKASGYSFTAYYIHWVKQAPGQGLEWIGYISSYNGATNYNQKFKGRVTFTTDTSTSTAYMELRSLRSDDTAVYYCARDYDYDVGMDYWGQGTLVTVSSASTKGPSVFPLAPCSRSTSESTAALGCLVKDYFPEPVTVSWNSGALTSGVHTFPAVLQSSGLYSLSSVVTVPSSNFGTQTYTCNVDHKPSNTKVDKTVERKCCVECPPCPAPPVAGPSVFLFPPKPKDTLMISRTPEVTCVVVDVSHEDPEVQFNWYVDGVEVHNAKTKPREEQFNSTFRVVSVLTVVHQDWLNGKEYKCKVSNKGLPAPIEKTISKTKGQPREPQVYTLPPSREEMTKNQVSLTCLVKGFYPSDIAVEWESNGQPENNYKTTPPMLDSDGSFFLYSKLTVDKSRWQQGNVFSCSVMHEALHNHYTQKSLSLSPGK
chain 2: not shown
notes: also called anti-DLL4 antibody molecule
With B1, the binding result is “no binding”.
